Positions count from the first letter of the chain named. No end group written: not given here. *: point of attachment. Succinimide(1-Et,3-yl) = CCN1C(=O)CC(*)C1=O
T1: human CRH receptor type 2 (human, UniProt Q13324 1-411)
T1 sequence (looked up): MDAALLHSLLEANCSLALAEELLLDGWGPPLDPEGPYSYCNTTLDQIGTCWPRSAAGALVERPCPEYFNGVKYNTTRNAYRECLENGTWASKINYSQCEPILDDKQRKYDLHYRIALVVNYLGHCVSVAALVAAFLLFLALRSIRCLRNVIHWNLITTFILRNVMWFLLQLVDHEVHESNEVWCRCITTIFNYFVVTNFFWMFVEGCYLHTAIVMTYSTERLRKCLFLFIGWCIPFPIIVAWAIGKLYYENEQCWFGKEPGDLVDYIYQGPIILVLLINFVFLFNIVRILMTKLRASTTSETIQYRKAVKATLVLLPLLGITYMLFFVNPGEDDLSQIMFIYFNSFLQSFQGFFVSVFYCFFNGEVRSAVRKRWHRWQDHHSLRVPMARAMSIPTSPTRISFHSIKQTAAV

B1: Cys-variant CRHR2 peptide agonist, SEQ ID NO: 41 (peptide)
peptide: TKFTLSLDVPTNIMNLLFNIAKAKNLRAQAAANAHLMAQC-NH2
B2: Pegylated Cys-variant CRHR2 peptide agonist (NES linker, PEG about 20 kDa), SEQ ID NO: 86 (peptide)
peptide: TKFTLSLDVPTNIMNLLFNIAKAKNLRAQAACNAHLMAQI
modifications: NES-PEG (about 20 kDa) on Cys 32; C-terminal amide
B3: Pegylated Cys-variant CRHR2 peptide agonist (NES-PEG-NEM MW20000), SEQ ID NO: 98 (peptide)
peptide: B2 peptide with A28C, C32A
modifications: NES-PEG-NEM MW20000 on Cys 28 (double-ended linear PEG with an N-Ethylmaleimide cap at the non-linked end); C-terminal amide
B4: Pegylated Cys-variant CRHR2 peptide agonist (NES linker, PEG about 20 kDa), SEQ ID NO: 93 (peptide)
peptide: B2 peptide with C32A, Q39C
modifications: NES-PEG (about 20 kDa) on Cys 39; C-terminal amide
B5: Pegylated Cys-variant CRHR2 peptide agonist (NES linker, PEG about 20 kDa), SEQ ID NO: 94 (peptide)
peptide: B2 peptide with C32A, I40C
modifications: NES-PEG (about 20 kDa) on Cys 40; C-terminal amide
B6: Pegylated Cys-variant CRHR2 peptide agonist (NES linker, PEG about 20 kDa), SEQ ID NO: 87 (peptide)
peptide: B2 peptide with C32A, N33C
modifications: NES-PEG (about 20 kDa) on Cys 33; C-terminal amide
B7: Pegylated Cys-variant CRHR2 peptide agonist (NES-PEG MW2000), SEQ ID NO: 95 (peptide)
peptide: B2 peptide with A28C, C32A
modifications: NES-PEG MW2000 on Cys 28; C-terminal amide
B8: Pegylated Cys-variant CRHR2 peptide agonist (NES linker, PEG about 20 kDa), SEQ ID NO: 89 (peptide)
peptide: B2 peptide with C32A, H35C
modifications: NES-PEG (about 20 kDa) on Cys 35; C-terminal amide
B9: Pegylated Cys-variant CRHR2 peptide agonist (NES linker, PEG about 20 kDa), SEQ ID NO: 88 (peptide)
peptide: B2 peptide with C32A, A34C
modifications: NES-PEG (about 20 kDa) on Cys 34; C-terminal amide
B10: Pegylated Cys-variant CRHR2 peptide agonist (NES-PEG MW5000), SEQ ID NO: 96 (peptide)
peptide: B2 peptide with A28C, C32A
modifications: NES-PEG MW5000 on Cys 28; C-terminal amide
B11: Pegylated Cys-variant CRHR2 peptide agonist (NES-PEG MW12000), SEQ ID NO: 97 (peptide)
peptide: B2 peptide with A28C, C32A
modifications: NES-PEG MW12000 on Cys 28; C-terminal amide
B12: Pegylated Cys-variant CRHR2 peptide agonist (NES linker, PEG about 20 kDa), SEQ ID NO: 92 (peptide)
peptide: B2 peptide with C32A, A38C
modifications: NES-PEG (about 20 kDa) on Cys 38; C-terminal amide
B13: Pegylated Cys-variant CRHR2 peptide agonist (NES linker, PEG about 20 kDa), SEQ ID NO: 91 (peptide)
peptide: B2 peptide with C32A, M37C
modifications: NES-PEG (about 20 kDa) on Cys 37; C-terminal amide
B14: Cys-variant CRHR2 peptide agonist, SEQ ID NO: 33 (peptide)
peptide: TKFTLSLDVPTNIMNLLFNIAKAKNLRAQAACNAHLMAQI-NH2
B15: Cys-variant CRHR2 peptide agonist, SEQ ID NO: 37 (peptide)
peptide: TKFTLSLDVPTNIMNLLFNIAKAKNLRAQAAANAHCMAQI-NH2
B16: Cys-variant CRHR2 peptide agonist, SEQ ID NO: 36 (peptide)
peptide: TKFTLSLDVPTNIMNLLFNIAKAKNLRAQAAANACLMAQI-NH2
B17: Cys-variant CRHR2 peptide agonist, SEQ ID NO: 38 (peptide)
peptide: TKFTLSLDVPTNIMNLLFNIAKAKNLRAQAAANAHLCAQI-NH2
B18: Cys-variant of stresscopin peptide with N-Ethylsuccinimide (NES) reactive group, SEQ ID NO: 44 (peptide)
peptide: TKFTLSLDVPTNIMNLLFNIAKAKNLRAQAAAC(Succinimide(1-Et,3-yl))AHLMAQI-NH2
modifications: N-terminus assumed
SMILES: CC[C@H](C)[C@H](NC(=O)[C@H](CCC(N)=O)NC(=O)[C@H](C)NC(=O)[C@H](CCSC)NC(=O)[C@H](CC(C)C)NC(=O)[C@H](Cc1c[nH]cn1)NC(=O)[C@H](C)NC(=O)[C@H](CSC1CC(=O)N(CC)C1=O)NC(=O)[C@H](C)NC(=O)[C@H](C)NC(=O)[C@H](C)NC(=O)[C@H](CCC(N)=O)NC(=O)[C@H](C)NC(=O)[C@H](CCCNC(=N)N)NC(=O)[C@H](CC(C)C)NC(=O)[C@H](CC(N)=O)NC(=O)[C@H](CCCCN)NC(=O)[C@H](C)NC(=O)[C@H](CCCCN)NC(=O)[C@H](C)NC(=O)[C@@H](NC(=O)[C@H](CC(N)=O)NC(=O)[C@H](Cc1ccccc1)NC(=O)[C@H](CC(C)C)NC(=O)[C@H](CC(C)C)NC(=O)[C@H](CC(N)=O)NC(=O)[C@H](CCSC)NC(=O)[C@@H](NC(=O)[C@H](CC(N)=O)NC(=O)[C@@H](NC(=O)[C@@H]1CCCN1C(=O)[C@@H](NC(=O)[C@H](CC(=O)O)NC(=O)[C@H](CC(C)C)NC(=O)[C@H](CO)NC(=O)[C@H](CC(C)C)NC(=O)[C@@H](NC(=O)[C@H](Cc1ccccc1)NC(=O)[C@H](CCCCN)NC(=O)[C@@H](N)[C@@H](C)O)[C@@H](C)O)C(C)C)[C@@H](C)O)[C@@H](C)CC)[C@@H](C)CC)C(N)=O
B19: Cys-variant of stresscopin peptide with N-Ethylsuccinimide (NES) reactive group, SEQ ID NO: 42 (peptide)
peptide: TKFTLSLDVPTNIMNLLFNIAKAKNLRAQAAANAHLMAQC(Succinimide(1-Et,3-yl))-NH2
modifications: N-terminus assumed
SMILES: CC[C@H](C)[C@H](NC(=O)[C@H](CC(N)=O)NC(=O)[C@H](Cc1ccccc1)NC(=O)[C@H](CC(C)C)NC(=O)[C@H](CC(C)C)NC(=O)[C@H](CC(N)=O)NC(=O)[C@H](CCSC)NC(=O)[C@@H](NC(=O)[C@H](CC(N)=O)NC(=O)[C@@H](NC(=O)[C@@H]1CCCN1C(=O)[C@@H](NC(=O)[C@H](CC(=O)O)NC(=O)[C@H](CC(C)C)NC(=O)[C@H](CO)NC(=O)[C@H](CC(C)C)NC(=O)[C@@H](NC(=O)[C@H](Cc1ccccc1)NC(=O)[C@H](CCCCN)NC(=O)[C@@H](N)[C@@H](C)O)[C@@H](C)O)C(C)C)[C@@H](C)O)[C@@H](C)CC)C(=O)N[C@@H](C)C(=O)N[C@@H](CCCCN)C(=O)N[C@@H](C)C(=O)N[C@@H](CCCCN)C(=O)N[C@@H](CC(N)=O)C(=O)N[C@@H](CC(C)C)C(=O)N[C@@H](CCCNC(=N)N)C(=O)N[C@@H](C)C(=O)N[C@@H](CCC(N)=O)C(=O)N[C@@H](C)C(=O)N[C@@H](C)C(=O)N[C@@H](C)C(=O)N[C@@H](CC(N)=O)C(=O)N[C@@H](C)C(=O)N[C@@H](Cc1c[nH]cn1)C(=O)N[C@@H](CC(C)C)C(=O)N[C@@H](CCSC)C(=O)N[C@@H](C)C(=O)N[C@@H](CCC(N)=O)C(=O)N[C@@H](CSC1CC(=O)N(CC)C1=O)C(N)=O
B20: Cys-variant CRHR2 peptide agonist, SEQ ID NO: 40 (peptide)
peptide: TKFTLSLDVPTNIMNLLFNIAKAKNLRAQAAANAHLMACI-NH2
B21: Cys-variant CRHR2 peptide agonist, SEQ ID NO: 39 (peptide)
peptide: TKFTLSLDVPTNIMNLLFNIAKAKNLRAQAAANAHLMCQI-NH2
B22: Cys-variant CRHR2 peptide agonist, SEQ ID NO: 35 (peptide)
peptide: TKFTLSLDVPTNIMNLLFNIAKAKNLRAQAAANCHLMAQI-NH2
B23: Cys-variant of stresscopin peptide with N-Ethylsuccinimide (NES) reactive group, SEQ ID NO: 43 (peptide)
peptide: TKFTLSLDVPTNIMNLLFNIAKAKNLRAQAAANAC(Succinimide(1-Et,3-yl))LMAQI-NH2
modifications: N-terminus assumed
SMILES: CC[C@H](C)[C@H](NC(=O)[C@H](CCC(N)=O)NC(=O)[C@H](C)NC(=O)[C@H](CCSC)NC(=O)[C@H](CC(C)C)NC(=O)[C@H](CSC1CC(=O)N(CC)C1=O)NC(=O)[C@H](C)NC(=O)[C@H](CC(N)=O)NC(=O)[C@H](C)NC(=O)[C@H](C)NC(=O)[C@H](C)NC(=O)[C@H](CCC(N)=O)NC(=O)[C@H](C)NC(=O)[C@H](CCCNC(=N)N)NC(=O)[C@H](CC(C)C)NC(=O)[C@H](CC(N)=O)NC(=O)[C@H](CCCCN)NC(=O)[C@H](C)NC(=O)[C@H](CCCCN)NC(=O)[C@H](C)NC(=O)[C@@H](NC(=O)[C@H](CC(N)=O)NC(=O)[C@H](Cc1ccccc1)NC(=O)[C@H](CC(C)C)NC(=O)[C@H](CC(C)C)NC(=O)[C@H](CC(N)=O)NC(=O)[C@H](CCSC)NC(=O)[C@@H](NC(=O)[C@H](CC(N)=O)NC(=O)[C@@H](NC(=O)[C@@H]1CCCN1C(=O)[C@@H](NC(=O)[C@H](CC(=O)O)NC(=O)[C@H](CC(C)C)NC(=O)[C@H](CO)NC(=O)[C@H](CC(C)C)NC(=O)[C@@H](NC(=O)[C@H](Cc1ccccc1)NC(=O)[C@H](CCCCN)NC(=O)[C@@H](N)[C@@H](C)O)[C@@H](C)O)C(C)C)[C@@H](C)O)[C@@H](C)CC)[C@@H](C)CC)C(N)=O
B24: Cys-variant CRHR2 peptide agonist, SEQ ID NO: 34 (peptide)
peptide: TKFTLSLDVPTNIMNLLFNIAKAKNLRAQAAACAHLMAQI-NH2

Each binder was assayed against T1, human CRH receptor type 2 (assay: cell-based or functional assay).

Binder | Log DR against h-SCP, cAMP | pA50, cAMP
B1 | 2.07 log10 ratio | 7.45 -log M
B2 | 0.82 log10 ratio | 8.79 -log M
B3 | 0.18 log10 ratio | 9.5 -log M
B4 | 1.47 log10 ratio | 8.2 -log M
B5 | > 2.39 log10 ratio | ~7 -log M
B6 | > 3.68 log10 ratio | ~6 -log M
B7 | 0.43 log10 ratio | 9.31 -log M
B8 | 0.98 log10 ratio | 8.48 -log M
B9 | 1.55 log10 ratio | 8.12 -log M
B10 | 1 log10 ratio | 8.74 -log M
B11 | ~0.74 log10 ratio | ~9 -log M
B12 | 1.55 log10 ratio | 8.12 -log M
B13 | > 3.43 log10 ratio | ~6.23 -log M
B14 | 0.45 log10 ratio | 9.07 -log M
B15 | 1.05 log10 ratio | 8.58 -log M
B16 | 0.42 log10 ratio | 9.1 -log M
B17 | > 2.95 log10 ratio | ~6.67 -log M
B18 | ~1.97 log10 ratio | ~7.5 -log M
B19 | ~1.72 log10 ratio | ~7.75 -log M
B20 | 0.55 log10 ratio | 9.08 -log M
B21 | 0.41 log10 ratio | 9.21 -log M
B22 | 0.7 log10 ratio | 8.93 -log M
B23 | -0.32 log10 ratio | 9.79 -log M
B24 | > 3.19 log10 ratio | ~6.32 -log M

From US20100130424A1 (Janssen / Centocor, published 2010)
